Test results taken from the supplement of paper PMC12783771.
± gives the standard deviation of the averaged measurements.

B1: library; numbered along this chain (parent)
chain: MNIQIGELAKRTACPVVTIRFYEQEGLLPPPGRSRGNFRLYGEEHVERLQFIRHCRSLDMPLSDVRTLLSYRKRPDQDCGEVNMLLDEHIRQVESRIGALLELKHHLVELREACSGARPAQSCGILQGLSDCVCDTRGTTAHPSD

Tests used:
[1] = variants of: B1; experiment: sfGFP reporter fluorescence (15 h) (µM FITC); higher = higher leak; details: library round: Round 1; ligand: none
Procedure, shortened: (§1)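 With 1 µM lead chloride, 30 µM zinc acetate or no metal present, 1 μL Echo-assembled reactions were incubated 15 hr at 30 °C. They contained BL21 Star (DE3) PANOx-SP extract, 30 μg/mL GamS, the pPbrR-sfGFP reporter plasmid and PCR-made linear PbrR templates Echo-normalized to 5 nM. Endpoint sfGFP fluorescence was read on a Synergy Neo2 at 485/528 nm against FITC standards in 50 mM sodium borate pH 8.5. Results are expressed as µM FITC.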

[2] = variants of: B1; experiment: sfGFP reporter fluorescence (15 h) (µM FITC); higher = stronger transcriptional activation; details: library round: Round 1
Procedure, shortened: as §1

[3] = variants of: B1; experiment: sfGFP reporter fluorescence (15 h) (µM FITC); higher = higher leak; details: library round: Round 0; ligand: none
Description: (§2)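 Cell-free (BL21 Star DE3 extract, PANOx-SP) biosensing: 1 µL Echo-assembled reactions with linear PbrR variant templates (5 nM) and pPbrR-sfGFP reporter, with 1 µM Pb (lead chloride), 30 µM Zn (zinc acetate) or no ligand; endpoint sfGFP fluorescence after 15 h at 30 °C, calibrated as µM FITC. Round 0 library (alanine scan, site saturation, combinatorial) of PbrR from Cupriavidus metallidurans; 2 biological replicates.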

[4] = variants of: B1; experiment: sfGFP reporter fluorescence (15 h) (µM FITC); higher = stronger transcriptional activation; details: library round: Round 0
Description: as §2

Variant | sfGFP reporter fluorescence [1] | sfGFP reporter fluorescence ([2]; ligand: 1 µM Pb) | sfGFP reporter fluorescence ([2]; ligand: 30 µM Zn) | sfGFP reporter fluorescence [3] | sfGFP reporter fluorescence ([4]; ligand: 1 µM Pb) | sfGFP reporter fluorescence ([4]; ligand: 30 µM Zn)
I97A K104V | 0.0886 ± 0.0059 | 0.303 ± 0.071 | 1.11 ± 0.076 | – | – | –
L100V G128I | 0.0908 ± 0.0036 | 0.322 ± 0.035 | 1.24 ± 0.03 | – | – | –
G128L C134E | 0.0749 ± 0.0015 | 0.135 ± 0.0039 | 1.36 ± 0.11 | – | – | –
I90L D135A | 0.0614 ± 0.0011 | 0.0634 ± 0.0038 | 0.207 ± 0.0065 | – | – | –
K104V D135A | 0.0696 ± 0.0011 | 0.123 ± 0.0063 | 0.678 ± 0.073 | – | – | –
D131M D135A | 0.0704 ± 0.005 | 0.0869 ± 0.0074 | 0.573 ± 0.039 | – | – | –
V108L C114L | 0.05962 ± 0.00056 | 0.0571 ± 0.003 | 0.0589 ± 0.0018 | – | – | –
N83T V108L D131C | 0.06218 ± 0.00042 | 0.0745 ± 0.0076 | 0.0858 ± 0.0057 | – | – | –
K104V L107G G128M | 0.0645 ± 0.0022 | 0.0955 ± 0.013 | 0.29 ± 0.028 | – | – | –
N83T L107C G128M D135A | 0.561 ± 0.031 | 1.15 ± 0.069 | 2.06 ± 0.28 | – | – | –
R111F E112A | 0.05962 ± 0.00021 | 0.0657 ± 0.00092 | 0.22 ± 0.021 | – | – | –
I97S K104V | 0.0836 ± 0.0026 | 0.247 ± 0.016 | 0.825 ± 0.05 | – | – | –
L107C E109H | 0.16 ± 0.0068 | 0.673 ± 0.092 | 1.68 ± 0.14 | – | – | –
L107C G124A G128M | 0.371 ± 0.0094 | 1.13 ± 0.051 | 2.08 ± 0.19 | – | – | –
L107N G128M | 0.0744 ± 0.0042 | 0.225 ± 0.02 | 0.917 ± 0.088 | – | – | –
M1A | – | – | – | 0.0618 ± 0.0029 | 0.0715 ± 0.0047 | 0.124 ± 0.0015
V108E E109H | 0.0605 ± 0.0011 | 0.0687 ± 0.003 | 0.224 ± 0.01 | – | – | –
I90L G128T D135A | 0.0632 ± 0.00092 | 0.0679 ± 0.0048 | 0.266 ± 0.031 | – | – | –
E94C K104V | 0.0704 ± 0.0013 | 0.072 ± 0.0039 | 0.184 ± 0.002 | – | – | –
D131Y D135P | 0.0677 ± 0.0011 | 0.0826 ± 0.0037 | 0.272 ± 0.021 | – | – | –
D131Y D135A | 0.0654 ± 0.0021 | 0.1 ± 0.0045 | 1.61 ± 0.27 | – | – | –
G128S D135A | 0.0652 ± 0.0016 | 0.0925 ± 0.0068 | 0.604 ± 0.015 | – | – | –

Variant | sfGFP reporter fluorescence [1] | sfGFP reporter fluorescence ([2]; ligand: 1 µM Pb) | sfGFP reporter fluorescence ([2]; ligand: 30 µM Zn) | sfGFP reporter fluorescence [3] | sfGFP reporter fluorescence ([4]; ligand: 1 µM Pb) | sfGFP reporter fluorescence ([4]; ligand: 30 µM Zn)
V108I D131C | 0.0613 ± 0.0026 | 0.0713 ± 0.0046 | 0.134 ± 0.0021 | – | – | –
L107C R111L G128M | 0.333 ± 0.022 | 1.15 ± 0.33 | 2.19 ± 0.32 | – | – | –
M84A I97G | 0.05986 ± 0.00042 | 0.0617 ± 0.0011 | 0.218 ± 0.017 | – | – | –
R96A K104V G128M | 0.0678 ± 0.0023 | 0.0902 ± 0.0061 | 0.257 ± 0.008 | – | – | –
E109L D135R | 0.0677 ± 0.0015 | 0.0959 ± 0.0042 | 0.406 ± 0.061 | – | – | –
E109L D135P | 0.0655 ± 0.0031 | 0.102 ± 0.0041 | 0.497 ± 0.027 | – | – | –
L126I D131C | 0.0635 ± 0.0019 | 0.0635 ± 0.0022 | 0.0699 ± 0.0022 | – | – | –
I3L | – | – | – | 0.0568 ± 0.0057 | 0.0722 ± 0.0042 | 0.821 ± 0.0098
I3G | – | – | – | 0.061 ± 0.0023 | 0.0755 ± 0.0047 | 0.1957 ± 0.001
I3M | – | – | – | 0.0641 ± 0.0015 | 0.0768 ± 0.0018 | 1.27 ± 0.15
I3A | – | – | – | 0.0544 ± 0.0049 | 0.0594 ± 0.001 | 0.339 ± 0.0078
I3F | – | – | – | 0.05552 ± 0.00026 | 0.0643 ± 0.0029 | 0.587 ± 0.019
I3K | – | – | – | 0.0608 ± 0.001 | 0.0652 ± 0.0057 | 0.308 ± 0.008
I3E | – | – | – | 0.061 ± 0.0013 | 0.0601 ± 0.001 | 0.101 ± 0.0013
I3H | – | – | – | 0.059 ± 0.001 | 0.0707 ± 0.0021 | 0.356 ± 0.01
I3D | – | – | – | 0.06139 ± 0.00026 | 0.06011 ± 0.00052 | 0.08118 ± 0.00078
I3C | – | – | – | 0.0586 | 0.0737 ± 0.0052 | 0.774 ± 0.011
L107I C114R | 0.059 ± 0.0019 | 0.0512 ± 0.0044 | 0.0514 ± 0.00092 | – | – | –
G128I C134E | 0.0745 ± 0.0014 | 0.139 ± 0.0047 | 1.38 ± 0.067 | – | – | –
L129V D135A | 0.0641 ± 0.00097 | 0.0619 ± 0.003 | 0.0639 ± 0.0027 | – | – | –
R111I C134P | 0.0589 ± 0.0022 | 0.0683 ± 0.0031 | 0.228 ± 0.0041 | – | – | –
unchanged | 0.0626 ± 0.0021 | 0.0729 ± 0.0052 | 0.487 ± 0.22 | 0.0588 ± 0.0029 | 0.0826 ± 0.03 | 0.722 ± 0.087
